Measurements as given in the supplement of paper PMC12764529.
± gives the half width of the 95% confidence interval.

assay: folding stability dG unfold from chymotrypsin proteolysis; higher = more stable
Method in brief: (§1)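 Sequencing followed digestion of designed mini-proteins with trypsin and chymotrypsin, each at 11 concentrations in threefold dilutions together with a no-protease condition. The mini-proteins were under 80 residues, had no cysteine, sat in a PA-tagged cDNA display construct, and were kept only if AlphaFold2 dimer inter-PAE was above 15. From the counts, Bayesian fitting gave K50, and unfolding free energy was derived against a sequence-predicted unfolded-state K50 and a shared folded-state K50, per protease or combined.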

Sequence | folding stability dG unfold
SAGGSAGGSKAEVVEEKEIFTFPNGFVIKLTKVKNENGEEFEFIEIVPLPPELTEEELKKLKESAGGSAGGS [r12_775_TrROS_Hall] | 2.14 ± 0.023 kcal/mol
SAMVITIHPDIPLEELAELLGFPEIEDATVEPLNEGIVPATFHIPEDPDKVILIDFNPEPDFALVLVLSSAG [r14_713_TrMRF] | 2.25 ± 0.038 kcal/mol
SAGGMVRITRDEDGILRVELFVEGTPEEAEEEAARLVRLLEELGFEEVRVEREPFGDGVVVTIEAKASAGGS [r8_113_TrMRF] | 2.86 ± 0.083 kcal/mol
SAGGDPDEIKKVIITARIYRPDPDGNIHTATIPIIIEGPLDEVIEKVAKEIEEAFGTKIVEITVEKGSAGGS [r16_511_TrMRF] | 1.2 ± 0.07 kcal/mol
SAGGMEVTFPVSPDLSPEEVRARIEAEIRPIAEARGAVDVEVPIVEYRRLPPDSVEFRFKVTVRFPRSAGGS [r8_184_JUSTAS] | 2.4 ± 0.052 kcal/mol
SMIIKPGMSLEEVLNKIKELLKKGEKYKITVINKETGKVYEFEIDVKTKKIKVKEVTLENGEVIIKIEKVSA [r9_1059_TrROS_Hall] | 3.54 ± 0.07 kcal/mol
SAGGSAGGSAGSPVSNPEGGTITNTETLPDGKTIVNTQTIDPSKPKTTTSTTVLDPNGNAVSAGGSAGGSAG [r3_433_JUSTAS] | 1.55 ± 0.045 kcal/mol
SAGGSAGGSKEKKYLVIELKLKVPPGMSPEELAKLLESLPGLKVVEIVEVDEESGTVKIVVELSAGGSAGGS [r12_712_TrROS_Hall] | 3.54 ± 0.096 kcal/mol
SAGGSAGGSAGGKVLKIKFSSIEEILEYIKNNDSVTIVVLDENDNPIGTITVEVKPGSLSAGGSAGGSAGGS [r10_193_TrMRF] | 2.89 ± 0.039 kcal/mol
SAGGDALKGLPPGAKVKVERVNGKLVVVVEKVEVKPPPKVTLTLPPGWKLTRLELTEDGTLKAELEPSAGGS [r16_103_TrROS_Hall] | 2.13 ± 0.068 kcal/mol
SAGGSAAVTITSVPPDGTIRATATNPTNGETVTITFSPETSPEEAVAAIQKELGGPVPVTAVTPAGSAGGSA [r15_544_JUSTAS] | 1.57 ± 0.062 kcal/mol
SAGGSAGGSAGPLRPRLYRVRFTNPDGSRREFLVPEGATLEEILKRFNIPESGRVELEPVSAGGSAGGSAGG [r11_340_TrMRF] | 2.04 ± 0.07 kcal/mol
SKKPKLKIEIEIPEITNMQPDPDNGKYTMRVPFRIKIEWKDNGKEREVDIPIPMNMTVDDARDQLKDLLKSA [r9_656_TrROS] | 1.57 ± 0.16 kcal/mol
SAGGSAGGSAAKIVDINISVRRSPENGYWKIPITIRIKGPNGKEQEIDLTMVFKIPPGQPLFSAGGSAGGSA [r18_95_TrROS] | 2.88 ± 0.043 kcal/mol
SAGGSAGGSAGSPIDTLVEEKTFTLPNGEKVIEATLKRPPGEPVHVVTIETKDSVIVELESAGGSAGGSAGG [r17_316_JUSTAS] | 0.304 ± 0.086 kcal/mol
SAGGSAGGSAGMVKVKITAPPNASLDAIIKAVKDNGAEIISIERKGNELIIEVEIPEENASAGGSAGGSAGG [r11_672_TrMRF] | 1.28 ± 0.046 kcal/mol
SASLVPTEREFELPGGERLRVTTPLDPNSDTPTVTVEKFTEAPDGTVTSTTTTVPPSEVAAVLEALGLRSAG [r14_416_JUSTAS] | 0.147 ± 0.045 kcal/mol
SAHTISIRIPPNMKPITAEELKKEPGYEVKDINVYPNEDGNMYFTIEVEPGMPPKKMDEILERIRDRMGSAG [r14_421_TrROS] | 0.911 ± 0.038 kcal/mol
SAGGSAGGSAGMTVEEFTIPEVGGRVIRTTVEEPTEDGVVVRRRYLILVNPDGTVERRPESAGGSAGGSAGG [r11_911_JUSTAS] | 0.13 ± 0.17 kcal/mol
SAGGSAGGSAGKTIYAPYSKIPEVIEELKKKGYEIDSIEKVPNGSYKISFKNKPIEINLGSAGGSAGGSAGG [r17_379_TrMRF] | 3.83 ± 0.048 kcal/mol
SAGGMTIEELLKKNPELKELVKKGYVIEITYPDGKKETIKISEEDLKKILDDIKKKTNKPVEIKILPSAGGS [r16_655_TrROS_Hall] | 1.82 ± 0.17 kcal/mol

assay: folding stability dG unfold (combined trypsin and chymotrypsin); higher = more stable
Method in brief: as §1

Sequence | folding stability dG unfold
SAGGSAEVYKVKIKIERVLPNGEKVEEEITIEVEGMSEEELLALARELAAEPGVRIKEIEIEKLPPSAGGSA [r15_550_TrROS_Hall] | 4.65 ± 0.38 kcal/mol
SAGGSAGGMTIEEKAEELEEELKKKYPDMEVKVEVDPEKGIVKITITDPKNPGKTTELTFPVEESAGGSAGG [r6_478_JUSTAS] | 3.36 ± 0.15 kcal/mol
MKAHVTVVDLEDRYRARIELELPDGRVLVFEFEFDSWEEAIEFIRGLIAALPEDEVEIDHIEFLPPDGDPSS [r1_169_TrMRF] | 4.46 ± 0.1 kcal/mol
SAGGSAPSISYTDPNITTITVNPPYITTTRPDGTTTVYKVNNGGDITKLKTTPPVPPAAATDASVASAGGSA [r15_393_JUSTAS] | 0.148 ± 0.16 kcal/mol
MSEEERKKAAEERSKPPPVEIKVEVEVVKNEDGEEYLRVRVTVVDPETGEVIEEREFVVRREDLEELLKALS [r1_415_TrROS_Hall] | 3.45 ± 0.27 kcal/mol
SGPIAELVKAHPGVPVEDLAKAIVDALKAQLPKDVPITVDAEVTPDGIKLNVTVEGDTEPFTFPFVVKPGSA [r9_805_TrMRF] | 1.2 ± 0.043 kcal/mol
SDRIEIEIWRHPNWWMIKIKVRDDGEPVGTQSFPVDDGMDIEEIADNLLNRNPNYKVEITEIEPMPPPPGSA [r9_364_TrROS] | 3.36 ± 0.41 kcal/mol
SAGMKIKVEVKETGETYEIEISEEELKKKLKEKFPEVKEITVVVEDPEDMSEEELREKALKAAEELLKSAGG [r19_298_TrROS_Hall] | 2.28 ± 0.18 kcal/mol
SKVKIVKVEYDKETNVVTVTIYDEKTKKKIEIRYTPGKVEIVVEIDGKKLVLKFKTKEEALEAAKKLLKKSA [r9_527_TrROS_Hall] | 3.61 ± 0.2 kcal/mol
SAGGSAGGEEEYYEIEIVLPKEKAEEILEELKKKLPEGWEIVSVEVVEVDEDGYVRLRIVVKRTSAGGSAGG [r6_340_TrROS_Hall] | 4.52 ± 0.3 kcal/mol
